Ends that are not written are not given here.
B1: Nb 702C12 (VHH)
VHH: EVQLVESGGGVVQPGGSLRLSCVASGRTFSRYAMGWFRQAPGKEREFVAAISRRGGSTNYADSVKGRFTISRDNSKNTVYLQMNSLRPEDTALYYCAADYSSGDGYLDYWGQGTLVTVSS
notes: monovalent Nanobody; not shown: C-terminal FLAG3 and HIS6 tag
B2: Nb 729C08 (VHH)
VHH: EVQLVESGGGVVQPGGSLRLSCAASGFTFSDYAMSWVRQAPGKGLEWVSGITGGGRTYYADSVKGRFTISRDNSKNTLYLQMNSLRPEDTALYYCAAAILTRTRRTYDYWGQGTLVTVSS
notes: monovalent Nanobody; also called Nb 729008; not shown: C-terminal FLAG3 and HIS6 tag

Target: T1, FX activation peptide 12-mer SSGEAPDSITWK (human)
T1 peptide: SSGEAPDSITWK-biotin
Assay: peptide ELISA
Experimental: (§1) The peptides were C-terminally conjugated to biotin and 50 μL of 1 μg/mL peptide solution was used for immobilization in discrete wells of the microtiter plate which was pre-coated with 1 μg/mL streptavidin. Each well was washed with washing buffer (10 mM Tris, 150 mM NaCl, 2.5 mM CaCl₂, 0.05% Tween 20, pH 8.60) followed by addition of 50 μL of 2 μg/mL FLAG-tagged anti-FX Nanobody® or IgG antibody to be tested. After 1 hour non-bound Nanobody®/antibody was washed off using washing buffer.
(§2) Bound anti-FX activation peptide ligand was detected by first binding a HRP-labelled secondary antibody (for FLAG-tagged Nanobodies: Anti-FLAG mAb M2-Peroxidase (HRP) (Sigma Aldrich, US), for antibody: Fcγ Fragment Specific Peroxidase AffiniPure F(ab′)₂ Fragment Goat Anti-Human IgG (Jackson ImmunoResearch Laboratories, Inc., US), or Peroxidase AffiniPure Goat Anti-Mouse IgG (Jackson ImmunoResearch Laboratories, Inc., US)) for 1 hour, and then adding 100 μL TMB-1 ELISA substrate (Kem-En-Tec Diagnostics, Denmark).

Row | Binder | ELISA signal relative to background
1 | B1 | 0.88
2 | B2 | 1.06

Target: T2, FX activation peptide 12-mer EAPDSITWKPYD (human)
T2 peptide: EAPDSITWKPYD-biotin
Assay: peptide ELISA
Experimental: as §1, §2

Row | Binder | ELISA signal relative to background
3 | B1 | 0.97
4 | B2 | 1.11

Target: T3, FX activation peptide 12-mer DFNQTQPERGDN (human)
T3 peptide: DFNQTQPERGDN-biotin
Assay: peptide ELISA
Experimental: as §1, §2

Row | Binder | ELISA signal relative to background
5 | B1 | 0.94
6 | B2 | 1.1

Target: T4, FX activation peptide 12-mer VAQATSSSGEAP (human)
T4 peptide: VAQATSSSGEAP-biotin
Assay: peptide ELISA
Experimental: as §1, §2

Row | Binder | ELISA signal relative to background
7 | B1 | 1.02
8 | B2 | 1.09

Target: T5, FX activation peptide 12-mer WKPYDAADLDPT (human)
T5 peptide: WKPYDAADLDPT-biotin
Assay: peptide ELISA
Experimental: as §1, §2

Row | Binder | ELISA signal relative to background
9 | B1 | 0.89
10 | B2 | 1.08

Target: T6, FX activation peptide 12-mer FDLLDFNQTQPE (human)
T6 peptide: FDLLDFNQTQPE-biotin
Assay: peptide ELISA
Experimental: as §1, §2

Row | Binder | ELISA signal relative to background
11 | B1 | 4.38
12 | B2 | 1.15

Target: T7, FX activation peptide 12-mer ATSSSGEAPDSI (human)
T7 peptide: ATSSSGEAPDSI-biotin
Assay: peptide ELISA
Experimental: as §1, §2

Row | Binder | ELISA signal relative to background
13 | B1 | 0.98
14 | B2 | 1.13

Target: T8, FX activation peptide 12-mer PYDAADLDPTEN (human)
T8 peptide: PYDAADLDPTEN-biotin
Assay: peptide ELISA
Experimental: as §1, §2

Row | Binder | ELISA signal relative to background
15 | B1 | 0.83
16 | B2 | 1.08

Target: T9, FX activation peptide 12-mer TQPERGDNNLTR (human)
T9 peptide: TQPERGDNNLTR-biotin
Assay: peptide ELISA
Experimental: as §1, §2

Row | Binder | ELISA signal relative to background
17 | B1 | 1.05
18 | B2 | 1.37

Target: T10, FX activation peptide 12-mer SITWKPYDAADL (human)
T10 peptide: SITWKPYDAADL-biotin
Assay: peptide ELISA
Experimental: as §1, §2

Row | Binder | ELISA signal relative to background
19 | B1 | 1.08
20 | B2 | 1.11

Target: T11, FX activation peptide 12-mer ADLDPTENPFDL (human)
T11 peptide: ADLDPTENPFDL-biotin
Assay: peptide ELISA
Experimental: as §1, §2

Row | Binder | ELISA signal relative to background
21 | B1 | 0.91
22 | B2 | 1.11

Target: T12, FX activation peptide 12-mer SVAQATSSSGEA (human)
T12 peptide: SVAQATSSSGEA-biotin
Assay: peptide ELISA
Experimental: as §1, §2

Row | Binder | ELISA signal relative to background
23 | B1 | 0.96
24 | B2 | 1.14

Target: T13, FX activation peptide 12-mer NQTQPERGDNNL (human)
T13 peptide: NQTQPERGDNNL-biotin
Assay: peptide ELISA
Experimental: as §1, §2

Row | Binder | ELISA signal relative to background
25 | B1 | 0.92
26 | B2 | 1.09

Target: T14, FX activation peptide 12-mer TENPFDLLDFNQ (human)
T14 peptide: TENPFDLLDFNQ-biotin
Assay: peptide ELISA
Experimental: as §1, §2

Row | Binder | ELISA signal relative to background
27 | B1 | 4.84
28 | B2 | 3.14

Target: T15, FX activation peptide 12-mer AADLDPTENPFD (human)
T15 peptide: AADLDPTENPFD-biotin
Assay: peptide ELISA
Experimental: as §1, §2

Row | Binder | ELISA signal relative to background
29 | B1 | 0.88
30 | B2 | 1.17

Target: T16, FX activation peptide 12-mer FNQTQPERGDNN (human)
T16 peptide: FNQTQPERGDNN-biotin
Assay: peptide ELISA
Experimental: as §1, §2

Row | Binder | ELISA signal relative to background
31 | B1 | 1
32 | B2 | 1.08

Target: T17, FX activation peptide 12-mer AQATSSSGEAPD (human)
T17 peptide: AQATSSSGEAPD-biotin
Assay: peptide ELISA
Experimental: as §1, §2

Row | Binder | ELISA signal relative to background
33 | B1 | 0.97
34 | B2 | 1.17

Target: T18, FX activation peptide 12-mer DSITWKPYDAAD (human)
T18 peptide: DSITWKPYDAAD-biotin
Assay: peptide ELISA
Experimental: as §1, §2

Row | Binder | ELISA signal relative to background
35 | B1 | 1.08
36 | B2 | 1.09

Target: T19, FX activation peptide 12-mer LDPTENPFDLLD (human)
T19 peptide: LDPTENPFDLLD-biotin
Assay: peptide ELISA
Experimental: as §1, §2

Row | Binder | ELISA signal relative to background
37 | B1 | 1.11

Target: T20, FX activation peptide 12-mer TWKPYDAADLDP (human)
T20 peptide: TWKPYDAADLDP-biotin
Assay: peptide ELISA
Experimental: as §1, §2

Row | Binder | ELISA signal relative to background
38 | B1 | 1.13
39 | B2 | 1.17

Target: T21, FX activation peptide 12-mer APDSITWKPYDA (human)
T21 peptide: APDSITWKPYDA-biotin
Assay: peptide ELISA
Experimental: as §1, §2

Row | Binder | ELISA signal relative to background
40 | B1 | 1.06
41 | B2 | 1.09

Target: T22, FX activation peptide 12-mer DAADLDPTENPF (human)
T22 peptide: DAADLDPTENPF-biotin
Assay: peptide ELISA
Experimental: as §1, §2

Row | Binder | ELISA signal relative to background
42 | B1 | 0.88
43 | B2 | 1.18

Target: T23, FX activation peptide 12-mer ITWKPYDAADLD (human)
T23 peptide: ITWKPYDAADLD-biotin
Assay: peptide ELISA
Experimental: as §1, §2

Row | Binder | ELISA signal relative to background
44 | B1 | 1.1
45 | B2 | 1.06

Target: T24, FX activation peptide 12-mer KPYDAADLDPTE (human)
T24 peptide: KPYDAADLDPTE-biotin
Assay: peptide ELISA
Experimental: as §1, §2

Row | Binder | ELISA signal relative to background
46 | B1 | 0.8
47 | B2 | 1.1

Target: T25, FX activation peptide 12-mer GEAPDSITWKPY (human)
T25 peptide: GEAPDSITWKPY-biotin
Assay: peptide ELISA
Experimental: as §1, §2

Row | Binder | ELISA signal relative to background
48 | B1 | 0.93
49 | B2 | 1.15

Target: T26, FX activation peptide 12-mer LDFNQTQPERGD (human)
T26 peptide: LDFNQTQPERGD-biotin
Assay: peptide ELISA
Experimental: as §1, §2

Row | Binder | ELISA signal relative to background
50 | B1 | 0.97
51 | B2 | 1.12

Target: T27, FX activation peptide 12-mer PDSITWKPYDAA (human)
T27 peptide: PDSITWKPYDAA-biotin
Assay: peptide ELISA
Experimental: as §1, §2

Row | Binder | ELISA signal relative to background
52 | B1 | 1.05
53 | B2 | 1.17

Target: T28, FX activation peptide 12-mer NPFDLLDFNQTQ (human)
T28 peptide: NPFDLLDFNQTQ-biotin
Assay: peptide ELISA
Experimental: as §1, §2

Row | Binder | ELISA signal relative to background
54 | B1 | 3.13
55 | B2 | 3.41

Target: T29, FX activation peptide 12-mer SSSGEAPDSITW (human)
T29 peptide: SSSGEAPDSITW-biotin
Assay: peptide ELISA
Experimental: as §1, §2

Row | Binder | ELISA signal relative to background
56 | B1 | 0.86
57 | B2 | 1.1

Target: T30, FX activation peptide 12-mer DLLDFNQTQPER (human)
T30 peptide: DLLDFNQTQPER-biotin
Assay: peptide ELISA
Experimental: as §1, §2

Row | Binder | ELISA signal relative to background
58 | B1 | 3.08
59 | B2 | 1.22

Target: T31, FX activation peptide 12-mer TSSSGEAPDSIT (human)
T31 peptide: TSSSGEAPDSIT-biotin
Assay: peptide ELISA
Experimental: as §1, §2

Row | Binder | ELISA signal relative to background
60 | B1 | 0.77
61 | B2 | 1.06

The binders below were run against human plasma-derived Factor X zymogen (human, UniProt P00742 41-179; P00742 183-488) (assay: cell-based or functional assay).
human plasma-derived Factor X zymogen, sequence (P00742 41-179, chain 1 of 2): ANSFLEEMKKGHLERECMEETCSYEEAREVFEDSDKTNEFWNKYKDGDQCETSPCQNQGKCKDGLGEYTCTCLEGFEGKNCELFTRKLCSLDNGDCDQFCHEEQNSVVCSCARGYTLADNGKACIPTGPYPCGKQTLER
human plasma-derived Factor X zymogen, sequence (P00742 183-488, chain 2 of 2): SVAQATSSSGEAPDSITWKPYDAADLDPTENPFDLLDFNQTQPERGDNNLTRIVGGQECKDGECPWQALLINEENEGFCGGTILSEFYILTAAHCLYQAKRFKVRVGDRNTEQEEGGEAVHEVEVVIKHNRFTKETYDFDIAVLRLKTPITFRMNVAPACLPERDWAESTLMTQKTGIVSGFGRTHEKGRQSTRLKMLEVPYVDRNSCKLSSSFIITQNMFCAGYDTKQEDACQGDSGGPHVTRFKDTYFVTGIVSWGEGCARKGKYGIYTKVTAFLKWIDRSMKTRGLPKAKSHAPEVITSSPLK

Row | Binder | Increase in FX activation (fold)
62 | B1 | 18.9
63 | B2 | > 32
